Experimental data taken from patent publication US6933142 (University of California, dated 2005).
Each block holds one molecule with its values, some of them ahead of it.

How the values were obtained:
[1] = molecular target: L-selectin on Jurkat cells (UniProt P14151); assay: cell-based or functional assay
[2] = molecular target: CD34 on CHO/FTVII/C2GnT cells, no sulfotransferase cDNA; assay: flow cytometry; CHO/FTVII/C2GnT cells with CD34 cDNA alone
[3] = molecular target: CD34 on CHO/FTVII/C2GnT cells cotransfected with KSGal6ST and HEC-GlcNAc6ST cDNAs; assay: flow cytometry; CHO/FTVII/C2GnT cells with CD34 (2 µg), 0.5 µg KSGal6ST and 1.0 µg HEC-GlcNAc6ST cDNA
Chain of CD34 on CHO/FTVII/C2GnT cells cotransfected with KSGal6ST and HEC-GlcNAc6ST cDNAs (P28906 32-385): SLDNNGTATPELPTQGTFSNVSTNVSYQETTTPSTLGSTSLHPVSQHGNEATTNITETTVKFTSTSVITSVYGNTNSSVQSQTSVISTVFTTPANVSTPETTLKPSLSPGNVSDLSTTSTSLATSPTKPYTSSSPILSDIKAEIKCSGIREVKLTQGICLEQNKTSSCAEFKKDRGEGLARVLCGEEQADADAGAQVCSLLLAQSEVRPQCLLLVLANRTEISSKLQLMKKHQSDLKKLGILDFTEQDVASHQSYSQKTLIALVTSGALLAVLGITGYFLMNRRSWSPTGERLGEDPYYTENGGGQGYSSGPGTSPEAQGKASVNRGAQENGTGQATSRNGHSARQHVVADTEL

[4] = molecular target: CD34 on CHO/FTVII/C2GnT cells cotransfected with KSGal6ST and HEC-GlcNAc6ST cDNAs; assay: flow cytometry; CHO/FTVII/C2GnT cells with CD34 (2 µg), 1 µg KSGal6ST and 0.5 µg HEC-GlcNAc6ST cDNA
[5] = molecular target: CD34 on CHO/FTVII/C2GnT cells cotransfected with HEC-GlcNAc6ST cDNA; assay: flow cytometry; CHO/FTVII/C2GnT cells with CD34 (2 µg) and 1.5 µg HEC-GlcNAc6ST cDNA
Chain of CD34 on CHO/FTVII/C2GnT cells cotransfected with HEC-GlcNAc6ST cDNA (P28906 32-385): as above

[6] = molecular target: CD34 on CHO/FTVII/C2GnT cells cotransfected with KSGal6ST and HEC-GlcNAc6ST cDNAs; assay: flow cytometry; CHO/FTVII/C2GnT cells with CD34 (2 µg), 0.5 µg KSGal6ST and 0.5 µg HEC-GlcNAc6ST cDNA
[7] = molecular target: CD34 on CHO/FTVII/C2GnT cells cotransfected with KSGal6ST cDNA; assay: flow cytometry; CHO/FTVII/C2GnT cells with CD34 (2 µg) and 1.5 µg KSGal6ST cDNA
Chain of CD34 on CHO/FTVII/C2GnT cells cotransfected with KSGal6ST cDNA (P28906 32-385): as above

[8] = molecular target: CD34 on CHO/FTVII/C2GnT cells cotransfected with HEC-GlcNAc6ST cDNA; assay: flow cytometry; CHO/FTVII/C2GnT cells with CD34 (2 µg) and 1 µg HEC-GlcNAc6ST cDNA
[9] = molecular target: CD34 on CHO/FTVII/C2GnT cells cotransfected with KSGal6ST cDNA; assay: flow cytometry; CHO/FTVII/C2GnT cells with CD34 (2 µg) and 1.0 µg KSGal6ST cDNA
[10] = molecular target: T1, rGlyCAM-1/IgG FT huGlcNAc6ST (human, UniProt Q02596 20-151 (mouse entry), limits assumed, glycans made in COS cells co-transfected with C2GnT, FucT-VII and huGlcNAc6ST (fucosylated, GlcNAc-6-sulfate)); assay: cell-based or functional assay
T1 sequence (looked up): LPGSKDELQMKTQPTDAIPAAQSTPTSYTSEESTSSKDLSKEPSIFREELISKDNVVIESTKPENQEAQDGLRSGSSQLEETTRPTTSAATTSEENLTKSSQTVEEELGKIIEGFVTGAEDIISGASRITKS

[11] = molecular target: T2, rGlyCAM-1/IgG FT HEC-GlcNAc6ST (human, UniProt Q02596 20-151 (mouse entry), limits assumed, glycans made in COS cells co-transfected with C2GnT, FucT-VII and HEC-GlcNAc6ST (fucosylated, GlcNAc-6-sulfate)); assay: cell-based or functional assay
T2 sequence (looked up): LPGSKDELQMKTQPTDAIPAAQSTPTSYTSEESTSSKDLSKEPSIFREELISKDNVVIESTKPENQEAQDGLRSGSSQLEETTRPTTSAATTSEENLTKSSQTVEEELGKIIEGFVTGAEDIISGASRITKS

[12] = molecular target: T3, rGlyCAM-1/IgG FT KSGal6ST (human, UniProt Q02596 20-151 (mouse entry), limits assumed, glycans made in COS cells co-transfected with C2GnT, FucT-VII and KSGal6ST (fucosylated, Gal-6-sulfate)); assay: cell-based or functional assay
T3 sequence (looked up): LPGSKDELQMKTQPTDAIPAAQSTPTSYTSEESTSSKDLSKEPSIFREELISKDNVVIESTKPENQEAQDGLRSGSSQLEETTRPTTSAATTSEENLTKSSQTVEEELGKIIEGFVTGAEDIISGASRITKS

rGlyCAM-1/IgG = molecular target: T4, rGlyCAM-1/IgG (human, UniProt Q02596 20-151 (mouse entry), limits assumed, not fucosylated by FucT-VII, no sulfotransferase co-transfected); assay: cell-based or functional assay
T4 sequence (looked up): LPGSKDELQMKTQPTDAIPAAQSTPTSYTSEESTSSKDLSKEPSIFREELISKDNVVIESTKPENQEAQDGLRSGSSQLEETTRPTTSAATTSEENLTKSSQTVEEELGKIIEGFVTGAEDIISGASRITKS

Chain of CD34 on CHO/FTVII/C2GnT cells, no sulfotransferase cDNA (P28906 32-385): as the sequence (P28906 32-385) above

Rolling of Jurkat cells on rGlyCAM-1/IgG FT after treatment with 5 µg/ml DREG56 (rolling cells) [1]: 0
Molecule: DREG56 (antibody)

MFI (background signal) [2]: 139 MFI | MFI (background subtracted) [3]: 830 MFI | MFI (background subtracted) [4]: 917 MFI | MFI (background subtracted) [5]: 163 MFI | MFI (background subtracted) [6]: 935 MFI | MFI (background subtracted) [7]: 391 MFI | MFI (background subtracted) [8]: 114 MFI | MFI (background subtracted) [9]: 364 MFI
Molecule: L-selectin/IgM chimera (from UniProt P18337 39-332; P01871 106-453) (Fc fusion)

fraction of tethered cells relative to non-sulfated GlyCAM-1/IgG (FT) [10]: 2 fold | fraction of tethered cells relative to non-sulfated GlyCAM-1/IgG (FT) [11]: 2 fold | fraction of tethered cells relative to non-sulfated GlyCAM-1/IgG (FT) [12]: 6 fold
B1: L-selectin on Jurkat cells (receptor, UniProt P14151 39-372, looked up)
chain: WTYHYSEKPMNWQRARRFCRDNYTDLVAIQNKAEIEYLEKTLPFSRSYYWIGIRKIGGIWTWVGTNKSLTEEAENWGDGEPNNKKNKEDCVEIYIKRNKDAGKWNDDACHKLKAALCYTASCQPWSCSGHGECVEIINNYTCNCDVGYYGPQCQFVIQCEPLEAPELGTMDCTHPLGNFSFSSQCAFSCSEGTNLTGIEETTCGPFGNWSSPEPTCQVIQCEPLSAPDLGIMNCSHPLASFSFTSACTFICSEGTELIGKKKTICESSGIWSNPSPICQKLDKSFSMIKEGDYNPLFIPVAVMVTAFSGLAFIIWLARRLKKGKKSKRSMNDPY

incorporation of ^35S-SO4 into the GlyCAM-1 chimera in co-transfected COS cells (rGlyCAM-1/IgG): > 10 fold
B2: human HEC-GlcNAc6ST (enzyme)
chain: MLLPKKMKLLLFLVSQMAILALFFHMYSHNISSLSMKAQPERMHVLVLSSWRSGSSFVGQLFGQHPDVFYLMEPAWHVWMTFKQSTAWMLHMAVRDLIRAVFLCDMSVFDAYMEPGPRRQSSLFQWENSRALCSAPACDIIPQDEIIPRAHCRLLCSQQPFEVVEKACRSYSHVVLKEVRFFNLQSLYPLLKDPSLNLHIVHLVRDPRAVFRSRERTKGDLMIDSRIVMGQHEQKLKKEDQPYYVMQVICQSQLEIYKTIQSLPKALQERYLLVRYEDLARAPVAQTSRMYEFVGLEFLPHLQTWVHNITRGKGMGDHAFHTNARDALNVSQAWRWSLPYEKVSRLQKACGDAMNLLGYRHVRSEQEQRNLLLDLLSTWTVPEQIH
